Data from US20110275122A1 (Amgen, published 2011).

T1: c-mpl receptor (Homo sapiens (Human), UniProt P40238 26-491, The MPL used for panning was biotinylated; the biotin site is not stated and is not carried by the letters.)
T1 construct: also called TPO receptor
T1 sequence: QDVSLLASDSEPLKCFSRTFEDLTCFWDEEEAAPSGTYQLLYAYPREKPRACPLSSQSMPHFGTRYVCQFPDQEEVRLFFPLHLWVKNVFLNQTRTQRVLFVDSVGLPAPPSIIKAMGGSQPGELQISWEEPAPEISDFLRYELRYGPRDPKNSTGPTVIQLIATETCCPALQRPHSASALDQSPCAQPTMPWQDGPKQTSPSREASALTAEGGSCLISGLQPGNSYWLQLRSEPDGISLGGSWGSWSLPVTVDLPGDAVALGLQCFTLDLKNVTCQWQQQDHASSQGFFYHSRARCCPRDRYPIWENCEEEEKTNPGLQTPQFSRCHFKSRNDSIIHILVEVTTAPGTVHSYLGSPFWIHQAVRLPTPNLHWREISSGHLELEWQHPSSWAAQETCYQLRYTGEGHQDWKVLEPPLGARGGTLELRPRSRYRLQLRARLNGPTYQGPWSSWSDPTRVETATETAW

B1: SEQ ID NO: 254 (peptide)
peptide: IEGRWPPPQFPVTEHHSLERVGRRPPNAQMPQSIFICGQNEGPTFQYCQRCLREHS
B2: SEQ ID NO: 249 (peptide)
peptide: IEGEPVSDGKRRPRVHSLERVDAVHAKVGPSICAQIEGPTFKQWQKCKRAHS
B3: SEQ ID NO: 284 (peptide)
peptide: IEGHGSQKPTAARALESTSSLTTRTRTTSICAQQDMVGPTIRQWLAARACI
B4: SEQ ID NO: 246 (peptide)
peptide: IEGQSWEFENDRVPAHSLERVLLLRRVPTEPSGPSICAQIEGPTFKQWQECINGHS
B5: SEQ ID NO: 257 (peptide)
peptide: IEGYVGGPYEQTNSLERVPPTLAWKYGPRTPSICAQIEGPTFKQWQQCLSDHS
B6: SEQ ID NO: 250 (peptide)
peptide: IEGRWPPPQFPVTQQHSLERVGRPPPSVELPRPTFVCAQIEGPTFKQWQRCLREHS

What follows are binders tested against T1, c-mpl receptor (assay: phage-ELISA).

| Binder | Relative activity |
| --- | --- |
| IEGPTLHEWLRWLRQHS [SEQ ID NO: 291] | 78.3 |
| IEGRTWQLYFHAKEEHS [SEQ ID NO: 278] | 102 |
| IEGWTWQFYVHPKGDHS [SEQ ID NO: 264] | 122 |
| IEGPTFKQWQKCRNMHS [SEQ ID NO: 247] | 164 |
| IEGPTFKQWQKWRKTHS [SEQ ID NO: 274] | 105 |
| IEGWWWQFYAHPQGDHS [SEQ ID NO: 281] | 95 |
| IEGWTWQFYAHPQGDHS [SEQ ID NO: 317] | 24.2 |
| IEGWSWQFYAHPKGDHS [SEQ ID NO: 300] | 52.6 |
| IEGWPWQFYAHPQGDHS [SEQ ID NO: 289] | 80.3 |
| IEGWWWQFYVHAKGDHS [SEQ ID NO: 270] | 109 |
| IEGQEPTRLRLQMDRHS [SEQ ID NO: 304] | 48.3 |
| IEGPTFKQWQACLHSHS [SEQ ID NO: 266] | 114 |
| B1 | 137 |
| IEGMVKLGVIRLLVL [SEQ ID NO: 314] | 28.3 |
| IEGPTFKQWQYWRAKHS [SEQ ID NO: 275] | 105 |
| PSICAQIEGPTFKQWQTCMRAHS [SEQ ID NO: 256] | 133 |
| IEGPTFKQWQVWRNRHS [SEQ ID NO: 271] | 108 |
| IEGPTFKQWQAARMHHS [SEQ ID NO: 265] | 122 |
| IEGPTFKQWQGRSKRHS [SEQ ID NO: 258] | 131 |
| IEGWTRRQWLAARA [SEQ ID NO: 311] | 33.3 |
| IEGPTLRQRLAARA [SEQ ID NO: 299] | 57.3 |

| Binder | Relative activity |
| --- | --- |
| IEGPTLRQWLAARA (Positive control of the phage-ELISA) [IEGPTLRQWLAARA (positive control)] | 150 |
| IEGPTFKQWQRWRKMHS [SEQ ID NO: 253] | 144 |
| IEGPTFKQWQKLRRVHS [SEQ ID NO: 248] | 155 |
| IEGPTFKQWQKLRRSHS [SEQ ID NO: 261] | 125 |
| IEGWNPWRGAASRV [SEQ ID NO: 310] | 33.9 |
| IEGPTFKQWQWLRRHHS [SEQ ID NO: 269] | 109 |
| IEGPTFKQWQMLRRHHS [SEQ ID NO: 328] | 12.5 |
| IEGWSWQFYFHAKGDHS [SEQ ID NO: 277] | 104 |
| IEGWTWQFYALPRGDHS [SEQ ID NO: 297] | 63.2 |
| B2 | 150 |
| B3 | 92.1 |
| IEGSYRERQQAARA [SEQ ID NO: 308] | 35.2 |
| IEGQSWLRRLHWKEEHS [SEQ ID NO: 272] | 108 |
| IEGPTFKQWQAWRKKHS [SEQ ID NO: 252] | 146 |
| IEGEALVFWWAARA [SEQ ID NO: 307] | 40.3 |
| IEGPTFKQWQAWRRWHS [SEQ ID NO: 315] | 28.1 |
| IEGWWWQLYFHAKDDHS [SEQ ID NO: 260] | 126 |
| IEGPTFKQWQKSRTKHS [SEQ ID NO: 263] | 124 |
| IEGPTFKQWQAMRRHS [SEQ ID NO: 313] | 28.4 |
| IEGWPWQLYVHPEGEHS [SEQ ID NO: 259] | 129 |
| IEGFVGTVDWRQGRPHS [SEQ ID NO: 303] | 49.8 |

| Binder | Relative activity |
| --- | --- |
| IEGWWWQFYFHAKEDHS [SEQ ID NO: 255] | 136 |
| IEGWWWQFYFHPKEDHS [SEQ ID NO: 262] | 124 |
| IEGRHYQKWPARRLGHS [SEQ ID NO: 302] | 52 |
| IEGWIWRQWLAARA [SEQ ID NO: 286] | 91.4 |
| IEGWVWCQWLAARA [SEQ ID NO: 290] | 79.1 |
| IEGWVWWPWLAARA [SEQ ID NO: 296] | 63.5 |
| IEGWIWRPWLAARA [SEQ ID NO: 287] | 83.3 |
| IEGWVWRQWLAARA [SEQ ID NO: 301] | 52.1 |
| B4 | 173 |
| IEGEALVFWWRVRGGHS [SEQ ID NO: 294] | 73.9 |
| IEGYWWYASWAARA [SEQ ID NO: 288] | 80.4 |
| IAQVRMLGRFTLLVLSRARAASTQLSFQHSICAQIEGGAQTQWDAARA [SEQ ID NO: 305] | 47.4 |
| IEGPTFEQWQHWRRGHS [SEQ ID NO: 285] | 91.5 |
| IEGPSFTPWFHERRSHS [SEQ ID NO: 268] | 110 |
| B5 | 131 |
| IEGPTFKQWQVRQKTHS [SEQ ID NO: 276] | 105 |
| IEGEIWAGPGAARA [SEQ ID NO: 306] | 46.5 |
| IEGPTFKQWQRWRLLHS [SEQ ID NO: 251] | 149 |
| IEGWPRQLYAHAKEDHS [SEQ ID NO: 280] | 95.6 |
| B6 | 149 |
